The target of assay [1] is FcRn (UniProt P55899). Put plainly: SPR; association with FcRn at pH 6.0, dissociation at pH 7.4. For orientation: SPR reads the build-up and loss of mass on a sensor chip optically.
Assay [2] concerns the target human glucagon receptor (human) (UniProt P47871).
Assay [3] addresses FcγRIIIB (UniProt O75015). Put plainly: SPR; BIACORE T200, 25 °C; FcγRs immobilised by amine coupling on CM5 chips; test materials flowed over (HMC001 and I.V.-Globulin SN 31.25-500 nM, HM15136 30.38-486 nM); steady-state affinity fit.
Assay [4] deals with FcγRIA (UniProt P12314). The assay is described as above.
Chain of FcγRIA (P12314 16-292): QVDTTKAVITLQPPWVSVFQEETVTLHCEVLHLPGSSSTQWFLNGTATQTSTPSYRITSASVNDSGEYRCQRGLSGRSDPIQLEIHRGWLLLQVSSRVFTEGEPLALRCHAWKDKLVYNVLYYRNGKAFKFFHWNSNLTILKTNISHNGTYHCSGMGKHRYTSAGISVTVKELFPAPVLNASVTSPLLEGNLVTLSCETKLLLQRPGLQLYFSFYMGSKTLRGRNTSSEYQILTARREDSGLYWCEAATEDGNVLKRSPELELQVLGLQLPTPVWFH
Assay [5] concerns the target FcγRIIIA (UniProt P08637). The description is as above.
Assay [6] deals with FcγRIIA (UniProt P12318). The description is as above.
Chain of FcγRIIA (P12318 34-217): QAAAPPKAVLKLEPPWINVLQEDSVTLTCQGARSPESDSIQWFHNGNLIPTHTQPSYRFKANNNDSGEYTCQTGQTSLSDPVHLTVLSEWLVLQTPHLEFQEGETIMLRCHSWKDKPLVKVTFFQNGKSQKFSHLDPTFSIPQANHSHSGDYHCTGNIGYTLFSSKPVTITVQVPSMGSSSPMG

As usually defined, the Kd is the concentration at which binding is half-saturated. Lower therefore signals higher affinity.

Chain of FcγRIIIA (P08637 17-208): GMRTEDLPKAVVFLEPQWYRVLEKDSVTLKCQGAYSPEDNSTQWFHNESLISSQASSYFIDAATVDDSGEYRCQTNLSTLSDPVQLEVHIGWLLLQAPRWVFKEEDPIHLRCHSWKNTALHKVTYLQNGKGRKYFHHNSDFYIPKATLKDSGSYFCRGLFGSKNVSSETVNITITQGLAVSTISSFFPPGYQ
Chain of FcγRIIIB (O75015 17-200): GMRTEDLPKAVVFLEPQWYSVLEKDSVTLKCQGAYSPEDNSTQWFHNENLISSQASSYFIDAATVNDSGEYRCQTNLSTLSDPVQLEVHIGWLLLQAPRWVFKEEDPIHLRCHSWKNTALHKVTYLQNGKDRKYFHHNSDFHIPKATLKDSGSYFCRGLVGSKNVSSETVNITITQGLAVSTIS
Chain of FcRn (P55899 24-365, chain 1 of 2): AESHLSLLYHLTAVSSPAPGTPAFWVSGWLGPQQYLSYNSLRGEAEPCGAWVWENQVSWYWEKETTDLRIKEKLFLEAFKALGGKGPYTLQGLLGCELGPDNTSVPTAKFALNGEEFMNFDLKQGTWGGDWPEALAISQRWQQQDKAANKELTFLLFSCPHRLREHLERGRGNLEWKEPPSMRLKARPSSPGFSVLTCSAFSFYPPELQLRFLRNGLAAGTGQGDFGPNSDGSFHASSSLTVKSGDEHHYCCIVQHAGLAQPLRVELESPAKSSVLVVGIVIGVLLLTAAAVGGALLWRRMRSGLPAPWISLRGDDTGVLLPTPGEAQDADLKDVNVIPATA
Chain of FcRn (P61769 21-119, chain 2 of 2, further chain): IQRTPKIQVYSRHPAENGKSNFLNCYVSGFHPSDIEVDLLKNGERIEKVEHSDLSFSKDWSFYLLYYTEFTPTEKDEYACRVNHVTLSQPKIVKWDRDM

Consider HM15136, for which, in assay [1], the Ka came to 420000. The same substance returned an EC50 of intracellular cAMP generation in hGCGR/CHO cells (0.0015 to 1555.2 nM HM15136) in assay [2] of 0.024 nM.
For the substance IgG1 (=I.V.-Globulin SN) (antibody), the dissociation constant Kd in assay [3] was determined as 1590 nM; in assay [4], 26.7 nM; in assay [5], 209 nM; in assay [6] it was 184 nM.
